B1: Hypoxanthine-guanine phosphoribosyltransferase (Homo sapiens), P00492 (parent)
chain: MATRSPGVVISDDEPGYDLDLFCIPNHYAEDLERVFIPHGLIMDRTERLARDVMKEMGGHHIVALCVLKGGYKFFADLLDYIKALNRNSDRSIPMTVDFIRLKSYCNDQSTGDIKVIGGDDLSTLTGKNVLIVEDIIDTGKTMQTLLSLVRQYNPKMVKVASLLVKRTPRSVGYKPDFVGFEIPDKFVVGYALDYNEYFRDLNHVCVISETGKAKYKA
B2: 60 kDa heat shock protein, mitochondrial (Homo sapiens), P10809 (parent)
chain: MLRLPTVFRQMRPVSRVLAPHLTRAYAKDVKFGADARALMLQGVDLLADAVAVTMGPKGRTVIIEQSWGSPKVTKDGVTVAKSIDLKDKYKNIGAKLVQDVANNTNEEAGDGTTTATVLARSIAKEGFEKISKGANPVEIRRGVMLAVDAVIAELKKQSKPVTTPEEIAQVATISANGDKEIGNIISDAMKKVGRKGVITVKDGKTLNDELEIIEGMKFDRGYISPYFINTSKGQKCEFQDAYVLLSEKKISSIQSIVPALEIANAHRKPLVIIAEDVDGEALSTLVLNRLKVGLQVVAVKAPGFGDNRKNQLKDMAIATGGAVFGEEGLTLNLEDVQPHDLGKVGEVIVTKDDAMLLKGKGDKAQIEKRIQEIIEQLDVTTSEYEKEKLNERLAKLSDGVAVLKVGGTSDVEVNEKKDRVTDALNATRAAVEEGIVLGGGCALLRCIPALDSLTPANEDQKIGIEIIKRTLKIPAMTIAKNAGVEGSLIVEKIMQSSSEVGYDAMAGDFVNMVEKGIIDPTKVVRTALLDAAGVASLLTTAEVVVTEIPKEEKDPGMGAMGGMGGGMGGGMF
partner: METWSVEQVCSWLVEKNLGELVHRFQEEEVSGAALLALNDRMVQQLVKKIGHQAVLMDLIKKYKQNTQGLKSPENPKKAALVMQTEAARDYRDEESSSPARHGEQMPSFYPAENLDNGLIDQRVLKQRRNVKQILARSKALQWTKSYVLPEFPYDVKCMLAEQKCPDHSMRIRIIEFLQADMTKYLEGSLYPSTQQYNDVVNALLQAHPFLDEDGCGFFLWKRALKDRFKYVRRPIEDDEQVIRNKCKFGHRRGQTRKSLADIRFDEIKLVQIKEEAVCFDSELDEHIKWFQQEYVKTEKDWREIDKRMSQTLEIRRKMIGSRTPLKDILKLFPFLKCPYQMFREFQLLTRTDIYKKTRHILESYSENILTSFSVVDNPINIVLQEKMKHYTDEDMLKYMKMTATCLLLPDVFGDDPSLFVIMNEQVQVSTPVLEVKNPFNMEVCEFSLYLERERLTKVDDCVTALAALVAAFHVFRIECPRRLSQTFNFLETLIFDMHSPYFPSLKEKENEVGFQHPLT
B3: Peroxisomal bifunctional enzyme (Homo sapiens), Q08426 (parent)
chain: MAEYTRLHNALALIRLRNPPVNAISTTLLRDIKEGLQKAVIDHTIKAIVICGAEGKFSAGADIRGFSAPRTFGLTLGHVVDEIQRNEKPVVAAIQGMAFGGGLELALGCHYRIAHAEAQVGLPEVTLGLLPGARGTQLLPRLTGVPAALDLITSGRRILADEALKLGILDKVVNSDPVEEAIRFAQRVSDQPLESRRLCNKPIQSLPNMDSIFSEALLKMRRQHPGCLAQEACVRAVQAAVQYPYEVGIKKEEELFLYLLQSGQARALQYAFFAERKANKWSTPSGASWKTASARPVSSVGVVGLGTMGRGIVISFARARIPVIAVDSDKNQLATANKMITSVLEKEASKMQQSGHPWSGPKPRLTSSVKELGGVDLVIEAVFEEMSLKKQVFAELSAVCKPEAFLCTNTSALDVDEIASSTDRPHLVIGTHFFSPAHVMKLLEVIPSQYSSPTTIATVMNLSKKIKKIGVVVGNCFGFVGNRMLNPYYNQAYFLLEEGSKPEEVDQVLEEFGFKMGPFRVSDLAGLDVGWKSRKGQGLTGPTLLPGTPARKRGNRRYCPIPDVLCELGRFGQKTGKGWYQYDKPLGRIHKPDPWLSKFLSRYRKTHHIEPRTISQDEILERCLYSLINEAFRILGEGIAASPEHIDVVYLHGYGWPRHKGGPMFYASTVGLPTVLEKLQKYYRQNPDIPQLEPSDYLKKLASQGNPPLKEWQSLAGSPSSKL
partner: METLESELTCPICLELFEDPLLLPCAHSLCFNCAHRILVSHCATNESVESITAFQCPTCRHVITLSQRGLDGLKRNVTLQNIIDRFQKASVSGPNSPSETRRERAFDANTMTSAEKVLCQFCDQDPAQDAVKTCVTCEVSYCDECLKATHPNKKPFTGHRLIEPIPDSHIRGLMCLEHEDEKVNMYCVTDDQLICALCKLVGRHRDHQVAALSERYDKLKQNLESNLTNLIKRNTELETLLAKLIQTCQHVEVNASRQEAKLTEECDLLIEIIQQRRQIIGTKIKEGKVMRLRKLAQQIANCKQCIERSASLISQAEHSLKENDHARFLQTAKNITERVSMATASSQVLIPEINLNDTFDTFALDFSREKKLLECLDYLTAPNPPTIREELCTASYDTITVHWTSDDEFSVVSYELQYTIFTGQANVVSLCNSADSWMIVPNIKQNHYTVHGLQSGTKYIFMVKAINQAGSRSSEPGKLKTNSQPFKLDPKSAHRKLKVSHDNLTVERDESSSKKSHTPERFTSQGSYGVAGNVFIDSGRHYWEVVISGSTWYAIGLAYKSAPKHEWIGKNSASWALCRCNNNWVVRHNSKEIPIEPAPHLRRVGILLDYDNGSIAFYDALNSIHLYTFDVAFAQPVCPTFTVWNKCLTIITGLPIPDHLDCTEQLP
B4: Septin-12 (Homo sapiens), Q8IYM1 (parent)
chain: MDPLRRSPSPCLSSQPSSPSTPPCEMLGPVGIEAVLDQLKIKAMKMGFEFNIMVVGQSGLGKSTMVNTLFKSKVWKSNPPGLGVPTPQTLQLHSLTHVIEEKGVKLKLTVTDTPGFGDQINNDNCWDPILGYINEQYEQYLQEEILITRQRHIPDTRVHCCVYFVPPTGHCLRPLDIEFLQRLCRTVNVVPVIARADSLTMEEREAFRRRIQQNLRTHCIDVYPQMCFDEDINDKILNSKLRDRIPFAVVGADQEHLVNGRCVLGRKTKWGIIEVENMAHCEFPLLRDLLIRSHLQDLKDITHNIHYENYRVIRLNESHLLPRGPGWVNLAPASPGQLTTPRTFKVCRGAHDDSDDEF
partner: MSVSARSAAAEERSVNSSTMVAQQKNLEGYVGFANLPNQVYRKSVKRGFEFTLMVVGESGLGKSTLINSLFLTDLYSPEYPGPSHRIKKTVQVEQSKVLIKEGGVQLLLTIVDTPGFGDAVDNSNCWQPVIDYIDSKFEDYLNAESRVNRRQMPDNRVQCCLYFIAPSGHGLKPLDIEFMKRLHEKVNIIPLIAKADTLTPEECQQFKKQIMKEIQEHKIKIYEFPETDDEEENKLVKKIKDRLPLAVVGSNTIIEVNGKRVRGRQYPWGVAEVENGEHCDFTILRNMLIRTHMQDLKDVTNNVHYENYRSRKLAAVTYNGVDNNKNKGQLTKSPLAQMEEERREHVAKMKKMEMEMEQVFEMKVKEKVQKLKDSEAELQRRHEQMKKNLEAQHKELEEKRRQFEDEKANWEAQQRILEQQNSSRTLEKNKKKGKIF
B5: Meiotic recombination protein DMC1/LIM15 homolog (Homo sapiens), Q14565 (parent)
chain: MKEDQVVAEEPGFQDEEESLFQDIDLLQKHGINVADIKKLKSVGICTIKGIQMTTRRALCNVKGLSEAKVDKIKEAANKLIEPGFLTAFEYSEKRKMVFHITTGSQEFDKLLGGGIESMAITEAFGEFRTGKTQLSHTLCVTAQLPGAGGYPGGKIIFIDTENTFRPDRLRDIADRFNVDHDAVLDNVLYARAYTSEHQMELLDYVAAKFHEEAGIFKLLIIDSIMALFRVDFSGRGELAERQQKLAQMLSRLQKISEEYNVAVFVTNQMTADPGATMTFQADPKKPIGGHILAHASTTRISLRKGRGELRIAKIYDSPEMPENEATFAITAGGIGDAKE
B6: Pachytene checkpoint protein 2 homolog (Homo sapiens), Q15645 (parent)
chain: MDEAVGDLKQALPCVAESPTVHVEVHQRGSSTAKKEDINLSVRKLLNRHNIVFGDYTWTEFDEPFLTRNVQSVSIIDTELKVKDSQPIDLSACTVALHIFQLNEDGPSSENLEEETENIIAANHWVLPAAEFHGLWDSLVYDVEVKSHLLDYVMTTLLFSDKNVNSNLITWNRVVLLHGPPGTGKTSLCKALAQKLTIRLSSRYRYGQLIEINSHSLFSKWFSESGKLVTKMFQKIQDLIDDKDALVFVLIDEVESLTAARNACRAGTEPSDAIRVVNAVLTQIDQIKRHSNVVILTTSNITEKIDVAFVDRADIKQYIGPPSAAAIFKIYLSCLEELMKCQIIYPRQQLLTLRELEMIGFIENNVSKLSLLLNDISRKSEGLSGRVLRKLPFLAHALYVQAPTVTIEGFLQALSLAVDKQFEERKKLAAYI
partner: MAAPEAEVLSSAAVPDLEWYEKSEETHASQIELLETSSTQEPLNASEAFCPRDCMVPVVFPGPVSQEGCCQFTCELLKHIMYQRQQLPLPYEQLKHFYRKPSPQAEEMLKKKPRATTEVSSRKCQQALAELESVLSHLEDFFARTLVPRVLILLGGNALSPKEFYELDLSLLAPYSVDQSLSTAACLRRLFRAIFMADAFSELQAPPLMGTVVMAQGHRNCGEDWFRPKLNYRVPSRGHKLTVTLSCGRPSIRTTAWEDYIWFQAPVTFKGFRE
B7: Cell division cycle 7-related protein kinase (Homo sapiens), O00311 (parent)
chain: MEASLGIQMDEPMAFSPQRDRFQAEGSLKKNEQNFKLAGVKKDIEKLYEAVPQLSNVFKIEDKIGEGTFSSVYLATAQLQVGPEEKIALKHLIPTSHPIRIAAELQCLTVAGGQDNVMGVKYCFRKNDHVVIAMPYLEHESFLDILNSLSFQEVREYMLNLFKALKRIHQFGIVHRDVKPSNFLYNRRLKKYALVDFGLAQGTHDTKIELLKFVQSEAQQERCSQNKSHIITGNKIPLSGPVPKELDQQSTTKASVKRPYTNAQIQIKQGKDGKEGSVGLSVQRSVFGERNFNIHSSISHESPAVKLMKQSKTVDVLSRKLATKKKAISTKVMNSAVMRKTASSCPASLTCDCYATDKVCSICLSRRQQVAPRAGTPGFRAPEVLTKCPNQTTAIDMWSAGVIFLSLLSGRYPFYKASDDLTALAQIMTIRGSRETIQAAKTFGKSILCSKEVPAQDLRKLCERLRGMDSSTPKLTSDIQGHASHQPAISEKTDHKASCLVQTPPGQYSGNSFKKGDSNSCEHCFDEYNTNLEGWNEVPDEAYDLLDKLLDLNPASRITAEEALLHPFFKDMSL
partner: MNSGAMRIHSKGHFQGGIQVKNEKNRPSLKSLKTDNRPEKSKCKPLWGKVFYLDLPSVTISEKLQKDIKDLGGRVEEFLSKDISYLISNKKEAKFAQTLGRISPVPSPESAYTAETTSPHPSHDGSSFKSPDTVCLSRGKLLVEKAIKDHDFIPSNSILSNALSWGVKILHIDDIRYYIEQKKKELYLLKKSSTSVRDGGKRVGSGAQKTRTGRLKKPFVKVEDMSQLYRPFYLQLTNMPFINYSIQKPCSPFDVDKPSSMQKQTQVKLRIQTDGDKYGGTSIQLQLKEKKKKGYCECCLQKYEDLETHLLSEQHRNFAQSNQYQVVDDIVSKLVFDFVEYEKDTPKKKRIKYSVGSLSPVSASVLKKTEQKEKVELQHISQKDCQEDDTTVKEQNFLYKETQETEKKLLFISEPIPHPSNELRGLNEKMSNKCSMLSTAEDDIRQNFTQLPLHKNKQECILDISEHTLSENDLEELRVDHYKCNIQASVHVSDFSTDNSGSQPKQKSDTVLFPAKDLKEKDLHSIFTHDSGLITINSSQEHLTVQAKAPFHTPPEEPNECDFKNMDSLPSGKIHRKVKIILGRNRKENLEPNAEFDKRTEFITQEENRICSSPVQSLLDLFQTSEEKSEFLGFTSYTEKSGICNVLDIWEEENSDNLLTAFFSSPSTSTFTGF

Variants of: B1
Conditions: with sdcb1_human SDCBP
Target sequence in this assay (O00560 whole entry): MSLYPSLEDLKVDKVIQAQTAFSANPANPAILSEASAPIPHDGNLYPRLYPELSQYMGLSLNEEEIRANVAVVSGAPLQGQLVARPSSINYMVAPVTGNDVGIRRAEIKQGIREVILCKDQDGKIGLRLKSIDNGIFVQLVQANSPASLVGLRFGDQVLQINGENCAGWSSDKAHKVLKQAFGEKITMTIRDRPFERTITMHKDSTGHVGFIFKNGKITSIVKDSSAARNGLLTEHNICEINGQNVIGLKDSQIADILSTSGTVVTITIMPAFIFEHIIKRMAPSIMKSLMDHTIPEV

effect of a mutation on the interaction | Variant
disrupting interaction strength | C206Y
disrupting interaction strength | P38S

Variants of: B1
Conditions: with iscu_human ISCU

effect of a mutation on the interaction | Variant
disrupting interaction strength | C206Y
disrupting interaction strength | P38S

Variants of: B1
Conditions: with prdc1_human PRTFDC1, Q9NRG1
prdc1_human PRTFDC1, Q9NRG1, sequence (Q9NRG1 whole entry): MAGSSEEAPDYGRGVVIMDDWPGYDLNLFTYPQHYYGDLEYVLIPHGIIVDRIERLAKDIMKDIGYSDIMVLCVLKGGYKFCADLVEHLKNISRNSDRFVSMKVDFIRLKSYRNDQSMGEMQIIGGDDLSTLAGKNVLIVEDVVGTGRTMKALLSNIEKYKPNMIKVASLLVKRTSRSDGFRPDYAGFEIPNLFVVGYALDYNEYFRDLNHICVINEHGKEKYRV

effect of a mutation on the interaction | Variant
with no effect | C206Y
with no effect | P38S

Variants of: B1
Conditions: with ntaq1_human NTAQ1, Q96HA8

effect of a mutation on the interaction | Variant
disrupting interaction strength | C206Y
disrupting interaction strength | P38S

Variants of: B2
Conditions: with samd3_human SAMD3, Q8N6K7

effect of a mutation on the interaction | Variant
disrupting interaction strength | R142K
with no effect | R9G

Variants of: B3
Conditions: with tri18_human MID1, O15344

effect of a mutation on the interaction | Variant
disrupting interaction strength | I646T
with no effect | R556G
with no effect | L715S
with no effect | S703F
with no effect | R483Q

Variants of: B4
Conditions: with sept7_human SEPTIN7, Q16181

effect of a mutation on the interaction | Variant
disrupting interaction strength | D197N
disrupting interaction strength | G169E

Variants of: B5
Conditions: with gors2_human GORASP2, Q9H8Y8

effect of a mutation on the interaction | Variant
with no effect | I288T
with no effect | M200V

Variants of: B5
Conditions: with sdcb1_human SDCBP
Target sequence in this assay (O00560 whole entry): as the sequence (O00560 whole entry) above

effect of a mutation on the interaction | Variant
disrupting interaction strength | I288T
disrupting interaction strength | M200V

Variants of: B5
Conditions: with psa3_human PSMA3, P25788
psa3_human PSMA3, P25788, sequence (P25788 whole entry): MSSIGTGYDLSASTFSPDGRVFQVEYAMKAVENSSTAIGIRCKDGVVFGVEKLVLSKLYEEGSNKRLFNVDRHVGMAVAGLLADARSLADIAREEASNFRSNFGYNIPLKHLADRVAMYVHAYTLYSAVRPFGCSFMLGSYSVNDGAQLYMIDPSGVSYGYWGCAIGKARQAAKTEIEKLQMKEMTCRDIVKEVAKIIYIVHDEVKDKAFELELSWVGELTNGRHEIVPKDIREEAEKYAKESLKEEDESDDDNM

effect of a mutation on the interaction | Variant
disrupting interaction strength | I288T
with no effect | M200V

Variants of: B5
Conditions: with kcd17_human KCTD17, Q8N5Z5
kcd17_human KCTD17, Q8N5Z5, sequence (Q8N5Z5 whole entry): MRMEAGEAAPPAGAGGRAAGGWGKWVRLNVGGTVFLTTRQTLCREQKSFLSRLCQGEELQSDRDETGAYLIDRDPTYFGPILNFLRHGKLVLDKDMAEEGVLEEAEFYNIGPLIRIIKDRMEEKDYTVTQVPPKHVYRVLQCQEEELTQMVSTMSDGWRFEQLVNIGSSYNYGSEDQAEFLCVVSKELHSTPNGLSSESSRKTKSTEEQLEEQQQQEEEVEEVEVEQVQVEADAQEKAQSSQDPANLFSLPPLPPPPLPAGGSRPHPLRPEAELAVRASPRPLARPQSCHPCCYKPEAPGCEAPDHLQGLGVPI

effect of a mutation on the interaction | Variant
disrupting interaction strength | M200V

Variants of: B6
Conditions: with md2bp_human MAD2L1BP

effect of a mutation on the interaction | Variant
with no effect | G409E

Variants of: B7
Conditions: with dbf4a_human DBF4, Q9UBU7

effect of a mutation on the interaction | Variant
with no effect | Q456H

— IntAct's records for PubMed 31515488
